Reference: the supplement of paper PMC10567573

B1: S100A14 (parent)
chain: KIANLGSCNDSKLEFRSFWELIGE

Variants of: B1
Test: protein stability index of a GFP-peptide fusion (GPS, HEK-293T) (PSI 1-6); higher = more stable
Conditions: c terminus: a fixed tail appended
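Note: lentivirally expressed fusions sorted by FACS into six bins by GFP to DsRed ratio, PSI derived from sequencing read proportions per bin multiplied by bin number.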

Protein stability index, by site and new letter:
I2: F 1.55; E 1.77; N 1.6; Q 1.32; Y 1.57; M 1.99; G 2; R 2.13; L 1.8; P 2.12; S 2.9; T 2; V 1.88; K 1.54; H 2.31; D 1.61; W 1.88
G6: Q 1.95; E 2.06; W 2.21; M 2.51; A 2.11; Y 1.85; I 1.75; P 1.67; V 2.51; N 2.94; T 1.63; R 1.92; C 2.45; S 2.1; K 3.01; D 1.61; H 1.5; L 3.46
S17: I 2.45; N 1.5; K 2.2; Y 1.84; C 2.16; F 2.52; M 1.29; Q 2.75; A 3.38; E 1.87; R 1.34; H 1.46; W 2.28; P 1.65; L 2.86; D 1.95; G 1.33; T 2.75
N4: G 2.83; E 1.68; P 1.83; W 2.55; C 1.75; F 2.7; R 1.07; Q 1.72; D 1.73; K 3.15; T 1.7; V 1.98; Y 2.32; S 2; M 1.64; A 2.01; L 1.67; H 2.71; I 1.9
W19: A 1.89; L 1.56; I 1.97; Q 1.73; F 2.03; M 1.79; E 3.25; H 2.74; N 2.71; V 3.86; T 2.29; D 3.58; K 2.11; R 2.09; G 2.68; C 1.46; P 3.25; S 1.87
F18: M 1.63; G 2.43; V 1.52; Y 1.97; C 2.11; I 1.85; N 2.73; K 2.07; R 2.5; L 2.57; H 2.82; A 2.2; W 2.16; Q 1.98; P 2.27; D 3.52; T 1.89; S 2.08; E 2.66
S7: N 2.32; Y 1.83; M 1.62; I 1.89; R 2.03; L 1.79; K 1.44; H 2.25; P 2.5; T 1.71; G 1.62; E 1.87; W 1.89; F 2.13; V 2.58; D 1.96; A 1.51; Q 1.68; C 2.09
D10: C 1.95; W 3.28; K 1.98; F 1.92; S 2.4; Y 1.63; Q 1.7; E 2.21; I 1.72; L 2.55; N 2.39; R 1.74; A 1.66; V 2.32; G 2.84; T 1.95; P 1.64; M 2.85; H 2.31
E14: K 1.47; V 1.6; S 1.8; P 1.61; T 1.43; R 2.7; H 1.71; D 1.89; G 1.57; N 1.54; M 2.13; W 1.08; Y 2.01; A 1.81; F 1.89; C 1.48; I 2.54; L 2.08; Q 2.06
L5: R 2.25; M 1.85; I 1.41; K 2.89; T 1.62; F 2.03; Q 2.17; P 2.08; G 1.72; V 2.09; N 2.44; S 2.29; Y 1.53; E 2.74; A 1.89; H 1.88; D 2.67; C 2.27
R16: H 2.77; S 2.65; Y 2.44; L 3.03; D 2.11; N 2.13; C 1.66; F 1.42; W 2.25; A 1.28; K 1.36; P 2.28; G 1.54; T 1.61; M 1.78; E 1.92; I 1.97; V 2.3; Q 1.98
N9: Y 1.91; P 1.98; Q 1.77; M 1.97; C 1.75; V 2.01; T 1.56; K 2.23; W 1.83; A 2.06; S 1.08; D 1.59; E 2.19; I 1.69; R 1.47; H 1.8; F 1.86; G 2.22
A3: S 1.66; C 1.62; V 2.78; L 1.09; E 1.95; D 1.97; K 1.53; I 1.74; W 2.28; H 2.38; F 3.12; M 2.69; N 1.54; Q 1.98; R 1.33; G 2.48; P 1.23; T 1.65; Y 1.79
S11: C 2.62; Y 1.59; T 1.56; K 1.69; N 2.21; L 1.52; I 1.75; Q 2.08; D 1.89; R 2; M 1.4; A 2.38; G 1.53; V 2.42; E 1.68; W 1.18; P 2.81; F 2.39; H 1.62
F15: C 1.75; A 2.06; P 2.42; Q 2.25; W 2.75; Y 1.63; H 2.14; I 2.24; T 2.1; G 1.92; N 2.22; V 2.56; R 2.7; L 1.06; M 2.25; K 1.88; S 2.04; D 2.51; E 2.65
C8: L 1.49; K 1.55; R 2.07; M 1.51; H 1.22; V 2.08; E 1.97; S 1.99; N 1.68; F 1.56; A 1.77; I 3.2; D 2.63; P 1.79; W 1.12; G 2.24; T 1.76; Q 1.68
L13: Q 1.92; K 2.04; W 2.31; S 2.52; V 1.83; D 2.17; P 2.5; E 1.71; N 1.88; I 2.13; T 2.24; C 1.21; M 2.03; H 2.12; G 2.18; A 2.17; Y 2.12; R 1.5; F 2.21
K12: F 2.76; L 1.72; I 1.8; C 2.01; G 1.59; T 3; A 2.02; R 2.56; W 2.47; Q 1.26; H 2.35; N 2.29; E 3.21; P 1.95; V 2.47; D 2.24; S 1.96; Y 3; M 2.21
